Experimental findings from article PMC8472245 are described below.

In the first assay the target is FLAG-tagged KSHV ORF33 (Kaposi sarcoma-associated herpesvirus (KSHV)).
Sequence of FLAG-tagged KSHV ORF33 (Kaposi sarcoma-associated herpesvirus (KSHV)) (F5HEF2 whole entry): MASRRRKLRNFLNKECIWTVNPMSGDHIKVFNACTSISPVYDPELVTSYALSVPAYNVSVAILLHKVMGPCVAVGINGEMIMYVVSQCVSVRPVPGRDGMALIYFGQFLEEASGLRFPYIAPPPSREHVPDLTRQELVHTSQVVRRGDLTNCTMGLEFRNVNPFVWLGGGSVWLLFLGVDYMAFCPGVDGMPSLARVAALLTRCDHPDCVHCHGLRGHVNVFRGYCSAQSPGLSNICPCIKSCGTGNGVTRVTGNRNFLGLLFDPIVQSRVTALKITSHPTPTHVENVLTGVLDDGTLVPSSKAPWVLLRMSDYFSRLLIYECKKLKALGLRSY
Experiment: not given
Conditions: not given
With “TAT-C19 peptide (from UniProt F5HDE4 389-407)”, the yield of extracellular KSHV genomes (qPCR) from induced iSLK.BAC16 cells treated with the peptide, up to 200 uM, 5 days; the peptide blocks ORF45-ORF33 was determined as 34.1 µM.

The next assay deals with FLAG-tagged KSHV ORF33. Kind of assay: ELISA. Particulars: parent: est. 0.68; read off a plot.
On to “GST-tagged KSHV ORF45-C19 (from UniProt F5HDE4) C396A”, for which the response turned out to be 0.058 Absorbance.

On to “GST-tagged KSHV ORF45-C19 (from UniProt F5HDE4) T392A”, for which the response was found to be 0.085 Absorbance.

Consider “GST-tagged KSHV ORF45-C19 (from UniProt F5HDE4) W403A”, for which the response was determined as 0.07 Absorbance.

In the case of “GST-tagged KSHV ORF45-C19 (from UniProt F5HDE4) P404A”, the response stood at 0.09 Absorbance.

For the substance “GST-tagged KSHV ORF45-C19 (from UniProt F5HDE4) P393A”, the response worked out at 0.42 Absorbance.

For “GST-tagged KSHV ORF45-C19 (from UniProt F5HDE4) N402A”, the response was 0.69 Absorbance.

Consider “GST-tagged KSHV ORF45-C19 (from UniProt F5HDE4) L406A”, for which the response was determined as 0.44 Absorbance.

In the case of “GST-tagged KSHV ORF45-C19 (from UniProt F5HDE4) Y401A”, the response was found to be 0.058 Absorbance.

Regarding “GST-tagged KSHV ORF45-C19 (from UniProt F5HDE4) L395A”, the response came to 0.21 Absorbance.

With “GST-tagged KSHV ORF45-C19 (from UniProt F5HDE4) W405A”, the response turned out to be 0.058 Absorbance.

Consider “GST-tagged KSHV ORF45-C19 (from UniProt F5HDE4) G397A”, for which the response was determined as 0.19 Absorbance.

For the substance “GST-tagged KSHV ORF45-C19 (from UniProt F5HDE4) D407A”, the response was 0.69 Absorbance.

Consider “GST-tagged KSHV ORF45-C19 (from UniProt F5HDE4) P394A”, for which the response amounted to 0.058 Absorbance.
